Assay: yeast display, Sf9 membrane polyspecificity reagent, FACS + sequencing; frameworks hold sequencing errors
Summary of the method: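 A nanobody's polyreactivity label depends on the gate it was sorted from. Yeast display cells were stained with 10% biotinylated, detergent-solubilized Sf9 membrane reagent for 1 hour at 4 °C, enriched on streptavidin microbeads and sorted by FACS. The low and high (top ~1%) gates were set on anti-HA fluorescence for expression and streptavidin fluorescence for reagent binding.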

Row | Sequence | polyreactivity (PSR sort gate)
1 | QVQLVESGGGLVQAGGSLRLICAASGRTFFYYAMGWYRQAPGKEREFVAAISWSAGSTYYADSVKGRFTISRDNAKITVSLQMNSLKPKDTGVYYCAAARPSGGGFDYWGQGTQVTVSS | high polyreactivity
2 | QVQLVESGGGLVQAGGSLRLSCAASGSTFPSYAMGWYRQAPGKESELVAAITNGGSTTYADSVKGRFTISRDNAKNTVYLQMNSLKPEDTAVYYCAARYYYYYYYIRRDYWGQGTQVTVSS | low polyreactivity
3 | QVQLVESGGGLVQAGGSLRLSCAASGSTFTSYAMGWYRQAPGKERELVAAISRSGGRTYYADSVKGRFTISRDNAKYTVYLQMNSLKPEDTAVYYCNAASLSKSDYWGQGTQVTVSS | high polyreactivity
4 | QVQRVESGGGLVQAGGSLRLSCPASGFTFSRNVMGWYRQAPGKERELVADITLSGASTYYADSVKGRFTISRDNAKNTVYLQMNSLKPEDTAVYYCAADPYHWRWGWRHDYWGQGTQVTVSS | low polyreactivity
5 | QVQLVESGGGLVQAGGSLRLSCAASGSIFYTNVMGWYRQAPGKERELVAAISSSGDRTYYADSVKGRFTISRDNAKNTVYLQMNSLKPEDTAVYYCAAQSYRSRYYYWGQGTQVTVSS | high polyreactivity
6 | QVQLVESGGGLVQAGCSLRLSCAASGSIFYQYSMGWYRQAPGKERELVAAITWDGSRTYYADSVKGRFTISRDNAKNSVYLQMNSLKPEDTSVYYSNAVTRYSLFDYWGLGTQVTVSS | high polyreactivity
7 | QVQLVESAGGLVQAGGSLRLSCAASGRTFHWYTMGWYRQAPGKEREFVAGINWSGARTYYADSVKGRFTISRDNAKNTVYLQMNSLKPEDTAVYYCAKRLWGIDFDYWGQGTQVTVSS | high polyreactivity
8 | QDQHVESGGGLVQAGGSLRLSCAASGRTIGYNAMGLYRQAPGKERELVAAITSSSGSTYYADSVKGRFTISRDNAKNTVYLQMNSLKPEDRAVYYCAAYFRRLLYDYWGQGTHVTVSS | high polyreactivity
9 | QVQLGESGGGLVQAGGSLRLSCAASGYTFRPYAMGGYRQAPGKESELVAAISSGDSTNYADSVKGRFTISRDNAKNTVYLQMNSLNPEDTAVYYCAARRVGGGFYTWRNPAYEYWGQGTQVTVSS | high polyreactivity
10 | QVQLVESGGGLVQAGGSLRLSCAASGSIFTVYAMGWYRQAPGKERELVAAISRRGGSTYYADSVKGRFTISRDNAKNTVYLQMNSLKPEDTAVYYCAALERTLDNKYQFGYWGQGTEVTVSS | high polyreactivity
11 | QDQLVESGGGLVQAGGSLRLSCAASGLTFRLYAMGSYRQAPAKEREWVAAITSSSGSTYYADSVKGRFTISRDTANYTVYLQMNSLKPEDTAVYYCNAVRYTTQTPNVDYGYWGLGTQVTVSS | high polyreactivity
12 | QVQLVESGGGLVQAGGSLRLSCAASGRIFQQNAMGWYRQAPGKERELVAAISSRGGSTYYADSVKGRFTISRDNAKNTVYLQMNSLKPEDTAVYYCARQYQSYRYRGYDYWGQGTQVTVSS | low polyreactivity
13 | QVQLVESGGGLVQAGGSLRLSCAASAFILASYPMGWNRQAPGKERELVAAITKRGGSTYYADSVKGRFTISRDNAKNTVFLQMNSLKPEDTAVYFCATYSSTVLPRWKYYYWGQGTQVPVSS | high polyreactivity
14 | QVHLVESGGGLVQAGGSLRLSCPASGSTFYDNAMGCYRQPPGKERELVARIRWSGVRTYYADSVKGRFTISRDNAKNTVYLQMNSLKPEDTAVYYCAAGRPSRHWWSLDYYFWGQGTQVTVSS | low polyreactivity
15 | QVQLQESCGRLVQAGGILRLSCAACGNIFPSAVMGWYRQALGTEREFVATLNSGSNPYYADSVKGRFTISRDNAKNTVYLQLNSLKLEDTAVYYCAAYYKLPAWHTYWGQGTQVTVSS | low polyreactivity
16 | QVQLVESGGGLVQAGGSLRLSCAASGFTFKRYAMGWFRQAPGKERELVSTITSRGGSTYYADSVKGRFTISRDNAKNTVYLQMNSLKPEDTAVYYCVRRYPGLPGWSSYGSYESGYWGQGSQVTVSS | high polyreactivity
17 | QVQLVESGGGLVQAGGSLRLSCAASGRTFDSYTMGWYRQAPGKERELVAAINYSVASTNYADSLKGRFTISRDNAKITVYLQMNSLKTEDTAVYYCNRASAGWGPGTQVTVSS | low polyreactivity
18 | QVQLVESGGGLVQAGGSLRLSCAASGGTFETYALGWYIPAPGKEREFVAANSRSGGSTYYADSVKGRFTISRDNAKNTVYLQMNSLKPEDTAVYYCAAEGYDLSSRVYGGYDYWGQGTQVTVSS | low polyreactivity
19 | QDQLVESGGGLVQAGGSLRLSCAASGNIFWSNAMGWYRQAPVKERELVAGIRSTGGSTYYADSVKGRFTISRDNAKNTVYLQMNSLKPEDTAVYYCAAEHWYSTPWWTDDYWGQGTQVTLSS | high polyreactivity
20 | QVQLVESGGGLVQAGGSLRLSCAASGGTFDTYDMGWYRQAPGKERELVAAIRFGDGTTYYADSVKGRFTISRDNAKNTVYLQMNSLKPEDTAVYYCAAVFVWQPQYDQFRYDYWGQGTQVTVSS | low polyreactivity
21 | QVQLVESGGGLVQAGGSLRLSCAASGRIFARYAMGWNRQAPGKERELVAAISFRGGSTYYADSVKGRFTISRDNAKNTVYLQINSLKPEDTAVYYWNARYGRGGYDYWGQGTQVTVSS | high polyreactivity
22 | QVQLVESGGGLVQAGGSLRLICVASGRIFLTYAMGWYRQAPGKERELVAAISYSGASTYYADSVKGRFTISRDNAKNTVYLQMNSLKPEDTAVYYCAKDGTQYERQDPAYGYWGQGTQVTVSS | high polyreactivity

Row | Sequence | polyreactivity (PSR sort gate)
23 | QVQLVESGGGLVQAGGSLRLSCAASGRTFQTYARGWYRQAPGKERELVAAISKSGGGTYYADSVKGRFTISRDNAKNTVYLQMNSLKPEDTAVYYCATAGYHYRAWGGRYDYWGQGTQVTVSS | high polyreactivity
24 | QVQLVESGGGLVQAGGSLRLSCAASGITFGPYAMGWYRQAPGKERELVATISSSGGSTYYADSVKGRFTISRDNAKNTVYLQMNSLIPEDTAVYYCNAGYAPYLGAYDYWGQGTQVTVSS | low polyreactivity
25 | QVQLVESGGGLVQAGGSLRLSCAATGSIFNIYTMGRYRQAPGKERELVAVITSSGGKYYADSLKGRFTISRDNAMNTVYLQMNSLKPEDTAVYFCAARRRPYSPHLGYWGQGTQVTVSS | high polyreactivity
26 | QVQLVESGGGIVQAGGSLRLSCAASGFLYFFYAMGWYRQAPRKQRELVAANSDGVSTYYADSVKGRFTISRDNAKNTVYLQMNSLKPEDTAVFYCAVSRGDDPEFDYWGQCTQVTVSS | low polyreactivity
27 | QVQLVESGGGLVQAGGSLRLSCAASGIIFARYAMGWYRQAPGKERELVAAISNRGTSTYYADSVKGRFTISRDNAKNTVYLQMNSLKPEDTAVYYCKRVKDGYWGQGTQVTVSS | high polyreactivity
28 | QVQLVESGGGLVQAGGSLRLSCAASGRIFVGYYAMGWYRQAPGKERELVAAITIGGRTYYADSVKGRFTISRDNAKNTVYLQMNSLKPEDTAVYYCAASKYTRAYQEYGYWGQGTQVTVSS | high polyreactivity
29 | QVQLVESGGGLVQAGGSLRLSCAASGITFWFNAMGWYRQAPGKERELVAAITSGVDTNYADSVKGRFTISRDNAKNTVYLQMNSLKPEDTAVYYCAAQGGRLKRGRTTSDYWGQGTQVTVSS | low polyreactivity
30 | QVQLVESGGGLVQAGGSLRLSCAASGIILGYYAMGWYRQAPGKERELVAAINWSGASTYYADSVKGRFTISRDNAKNTVYLQMNSLKPEDTAVYYCARRAYGTRVLFDYWGQGTQVTVSS | high polyreactivity
31 | QVQLVESGRGLVQAGGSLRLTCAASGRIFYLNAMGGYRQAPGKERELVAGITNSTTGTYYADSVKGRFTIARDNAKNTVYLQMNSLKPVDTAVYYCNTDVAYEEPVETYDYWGQGTQVTVSS | low polyreactivity
32 | QVQLVESGGGLVQAGGSLRLSCAASGRTFDSYAMGWYRQAPGTETELVAGITRSGDSSYADSVKGRFTISRDNAKNTVYLQMTSLKPEDTAVYYCNKEGTVGGTRGYWGQGTQVTVSS | low polyreactivity
33 | QVQHVESGGGLVQAGGTLRLSSAASGSTYRWYAMGSYRQAPGKERELVAAITFRGGRTYYADSVKGRFTISRDNAKNTVYLQMNSLKPEDTAVYYFNAVTYSSPYRFDYWGQGTQVTVSS | low polyreactivity
34 | QVQLVESGGGLVQAGGSLRLSCAASGRIFYQNAMGWYRPAPGKERELVADISSGGSTYYADSVKGRFTISRDNAKNTVYLQMNSVKPEDTAVYYCHTPSGPGTVGSYRRKWYGYWGQGTQVTVSS | low polyreactivity
35 | QVQLVESGGGLVQAGGSLRLSCAASGFTFWWYAMGWYRQAPGKERQLVAGITSGASTYYADSVKGRYTISRDNAKNTVYLQMNSLKPEDTAVYYCAADWLGWYQPYDYWGQGTQVTVSS | low polyreactivity
36 | QVQLVESGGGLVQAGGSLRLSCAASGTISVFYAKGWYRQAPGKEREFVAAISWRGGRTYYADSVKARFTISRDNAKNTVYLQMNSLKPEDTAVYYCAKDIVRGRSSRYDYWGQGTQVTVSS | high polyreactivity
37 | QVQLVESGGGLVQAGGSLSLSCAASGRIFKSYAMGWYRQAPGKERELVAAIRSGGSTYYADSVKGRFTISRDNAKNTVYFQMNSLKPEDTAVYYCNRVTRTWKVTYHYWGQGTQVTVSS | high polyreactivity
38 | QVQLVESGGGLVQAGGSLRLSCAASGSTFGPYVMGGYRQAPGKERELVAVISGGSTDYADSVKGRFTISRDNAKNTVYLQMNSLKPEDTAVYYCNAEYYFYLSPTVYLYDYWGQGTQVTVSS | high polyreactivity
39 | QVQLVESGGGLVQAGGSLRLSCAASGITFGANTMGCYRQAPGKERELVSAITISGGITHYADSVKGRVTISRDNAKHTVYLQLNSLKPEDTAVNYCAAGAYWRLYPYRQRNGGRRYYWGQGTQVTVSW | low polyreactivity
40 | QVQLVESGGGLVQAGGSLRLSCAASGSTFGSYAMGWYRQAPGKERELVADISSRGASTYYADSVKGRFTISRDNAKNTVYLQMNSLKPEDTAVYYCARDVYIWYGYGYFPEYEYWGQGTQVTVSS | low polyreactivity
41 | QDQLVESGGGLVQAGGSLRLSCAASGRNFPGYVMGWYRQAPGKERELVAVITSNGGITYYADSVKGRFTISRDNAKNTVYLQMNSLKPEDTAVYYCAAYEIYYEFDSWGQGTLVTVSS | low polyreactivity
42 | QVQLVESGGGLVQAGGSLRLSCAASGITFPRYAMGWYRQAPGKERELVATITSRGGSTYYADSVKGRFTISRDNAKNTVYLQMNSLKPEDTAVYYCNAQYLLFHGYRYDYWGQCTQVTVSS | high polyreactivity
43 | QVQLVESGGRLVQARGSLRLSCAASRSTFPFYYMGWYRQAPGKERELVAAHTRRCGSTYYAVSVKGRFTISRDNGKNTFYLQMNSLKPEDTAVYYCAADDYTITIYYILDYWGQGTQVTVSS | low polyreactivity
